Assay: yeast display, Sf9 membrane polyspecificity reagent, FACS + sequencing; frameworks hold sequencing errors
How it was run: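 Sorting gates, low and high (top ~1%), were placed on anti-HA fluorescence to track expression and on streptavidin fluorescence to track reagent binding. A clone's polyreactivity label is taken from the gate it came out of. The reagent was 10% biotinylated, detergent-solubilized Sf9 membrane, applied for 1 hour at 4 °C to galactose-induced yeast display cells.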
For “QVQLVESGGGLVQAGGSLRLSCAASGSIFLIYAMAWYRQAPGKERELVAAISSGGSTYYADSVKGRFTISRDNAKNTVYLQMNSLKPEDTAVYYCATYSTSVAYHLYYWGQGTQVTVSS”, the “polyreactivity (PSR sort gate)” value was “low polyreactivity”. With “QVQLVESGGGLVQAGGSLRLSCAASGSIFLIYAMGWYRQAPGKERELVAAISSGGSTYYADSVKGGFTISRDNAKNTVYLQMNSLKPEDTAVYYCATYSTSVGYHLYYWGQGTQVTVSS” the “polyreactivity (PSR sort gate)” value was “low polyreactivity”. In the case of “QVQLVESGGGLVQAGGSLRLSCAASGSIFLKNVMGWYRQAPGKERELVAAITARGGATYYADSVKGRFTISRDNAKKTVYLQLNSQKPEDTAVYYCAARARVVPSLGNPRMDYWGQGTQVTVSS”, the “polyreactivity (PSR sort gate)” value is reported as “high polyreactivity”. For “QVQLVESGGGLVQAGGSLRLSCAASGSIFLKYDMGWYRQAPGKERELVAAISRGGDTNYADSVKGLFTISRDNAKNCVYLQMNSLKPEDTAVYDCAARPGLYFTRRGRYYLGQGTQVTVSS”, the “polyreactivity (PSR sort gate)” value was “high polyreactivity”. With “QVQLVESGGGLVQAGGSLRLSCAASGSIFLLYAMGWYRQAPGKERELVAAISTRDGSTYYADSVKGRFTLSRDNAKNTVYLQMNSLKPEDTAVYYCATLYSYNYWGQGTQVTVSS” the “polyreactivity (PSR sort gate)” value was “high polyreactivity”. In the case of “QVQLVESGGGLVQAGGSLRLSCAASGSIFLLYAMGWYRQAPGKERELVARISWSGDNTRYADSVKGRFTISRDNAKNTVFLQMNSLKPEDTAVYYCNAYYFYGQWKGYDYWGQGTQVTVSS”, the “polyreactivity (PSR sort gate)” value is reported as “low polyreactivity”. In the case of “QVQLVESGGGLVQAGGSLRLSCAASGSIFLLYAMGWYRQAPGKERELVARISWSGDNTRYADSVKGRFTISRDNEKNTVYLQMNSLKPEDTAFYYCNAVTFSWDYGYWGQGSQVTVSS”, the “polyreactivity (PSR sort gate)” value is reported as “low polyreactivity”. In the case of “QVQLVESGGGLVQAGGSLRLSCAASGSIFLNYAMGWYRQAPGKERELVAAISYRVGRTYYADSVKGRFTISRDNAKNTVYLQMNSLKPEDTAVYYCAADSRSPGHDYWGQGTQVTVSS”, the “polyreactivity (PSR sort gate)” value is reported as “high polyreactivity”. In the case of “QVQLVESGGGLVQAGGSLRLSCAASGSIFLRNAMGWYRQAPGKERELVASITWNGASTSYADSVKGRFTISRDNAKNTVYLQMNSLKPEDTAVYYCAAVTVQDSNLKYGYWGQGTQLTVSS”, the “polyreactivity (PSR sort gate)” value is reported as “low polyreactivity”. With “QVQLVESGGGLVQAGGSLRLSCAASGSIFLRYAMGSYRQAPGKDRELVAAITRSGGSTYYADSVKGRFTISRDNANNTVDLQMNSLKPEDTAVYYCAAYTLVTVGYDYWGQGTQVTVSS” the “polyreactivity (PSR sort gate)” value was “high polyreactivity”. With “QVQLVESGGGLVQAGGSLRLSCAASGSIFLRYAMGWYRQAPGKERELVAAISLSGGNTYYADSVKGRFTISRDNSKNTVYLQMNSLKPEDTAVYYCAATRTKRKFDYWGQGTQVTVSS” the “polyreactivity (PSR sort gate)” value was “high polyreactivity”. For “QVQLVESGGGLVQAGGSLRLSCAASGSIFLRYAMGWYRQAPGKERELVAAITTGGGSTYYADSVKGRFTISRDNAKNTVYLQMNRLKPEDPAVYYCAKRAQYHWRGRDDYSYYYWGQGTQVTVSS”, the “polyreactivity (PSR sort gate)” value was “low polyreactivity”. With “QVQLVESGGGLVQAGGSLRLSCAASGSIFLRYAMGWYRQAPGKERELVAGITSGGSTNYADSVKGRFTISRDNAKNCVYLQMNSLKPEDTAVYYCNKDLPDWGHEWNGDSWGQGTQVTVSS” the “polyreactivity (PSR sort gate)” value was “low polyreactivity”. For “QVQLVESGGGLVQAGGSLRLSCAASGSIFLRYDMGWYRQAPGKERELVAAISRGGSTYYADSVKGRFTISRDNAKNTVYLQLNSLKPEDTAVYSCAARRFGREHGYWGQGTQVTVSS”, the “polyreactivity (PSR sort gate)” value was “high polyreactivity”. With “QVQLVESGGGLVQAGGSLRLSCAASGSIFLSNPMGWYRQAPGKERELVAAITSGGRTTYADSVKGRFTISRDNAKNTVYLQMNSLKPEDTAVYYCAARQRWYWRGYDYWGQGTQVTVSS” the “polyreactivity (PSR sort gate)” value was “high polyreactivity”. For “QVQLVESGGGLVQAGGSLRLSCAASGSIFLSYDMGWYRQAPGKERELVAAITQSGGSTYYADSVKGRFTISRDNAKNTVYLQMNSLKPEDTAVYYCAADYGYFPQETYPTYGYYYWGQGTQVTVSS”, the “polyreactivity (PSR sort gate)” value was “low polyreactivity”. With “QVQLVESGGGLVQAGGSLRLSCAASGSIFLWNAMGWYRQAPGKERELVAAISSSGGSTYYADSVKGRFTISRDNAKNTVYLQLNSLKPEDTAVYYCAAVSRSYYNSYNYWGQGTQVTVSS” the “polyreactivity (PSR sort gate)” value was “high polyreactivity”. With “QVQLVESGGGLVQAGGSLRLSCAASGSIFLYNAMGWYRQAPGKERELVAAISASGGSTYYADSVKGRFTISRDNAKNTVYLQMNSLKPEDTEVYFCAAQYSDYDGFTWPLPPRYDYWGQGTQVTVSS” the “polyreactivity (PSR sort gate)” value was “high polyreactivity”. In the case of “QVQLVESGGGLVQAGGSLRLSCAASGSIFLYNAMGWYRQAPGKERELVAGITFIGGSTYYADSVKGRFTISRDNAKNTVYLQMNSLKPEDTAVYYCNADVAPGIFYGYDSWGQGTQVTVSS”, the “polyreactivity (PSR sort gate)” value is reported as “low polyreactivity”. For “QVQLVESGGGLVQAGGSLRLSCAASGSIFLYNAMGWYRQAPGKERELVASISSGGITDYADSVKGRFTISRDNAKNTVYLQMNSLKPEDTAVYYCAATYSVYLDYAGGGPLYNHWGQGTQVTVSS”, the “polyreactivity (PSR sort gate)” value was “low polyreactivity”. In the case of “QVQLVESGGGLVQAGGSLRLSCAASGSIFLYNAMGWYRQAPGKERELVASITYGSGSTYYADSVKGRFTISRDNAKNTVYLQMNSLKPEDTAVYYCAATRYYRHGRYDSWGQGTQVTVSS”, the “polyreactivity (PSR sort gate)” value is reported as “high polyreactivity”. In the case of “QVQLVESGGGLVQAGGSLRLSCAASGSIFLYNAMGWYRQAPGKERELVATITYIGGRTYYADSVKGRFTISRDNAKNTVYLQMNSLKPEDSAVYYCAAEYYVISSPSFYEYDYWGQGTQVTVSS”, the “polyreactivity (PSR sort gate)” value is reported as “low polyreactivity”. With “QVQLVESGGGLVQAGGSLRLSCAASGSIFLYNDMGWYRQAPGKERELVAAISSGGNTNYADSVTGRFTISRDNAKNTVYLQMNSLKPEDTAVYYCNAAWIRVFQYTLYKYVYWGQGTQVTVSS” the “polyreactivity (PSR sort gate)” value was “low polyreactivity”. For “QVQLVESGGGLVQAGGSLRLSCAASGSIFLYNTKGWYRQAPGKERELVAAISFSGVTTYYADSVKGRFTISRDNAKNTVYLQMNSLKPEDTAVYYCNKYLWKFTNSPLGDYYWGQGTQVTVSS”, the “polyreactivity (PSR sort gate)” value was “high polyreactivity”. For “QVQLVESGGGLVQAGGSLRLSCAASGSIFLYYAMGWYRQAPGKERELVAGIRRGGRTNYADSVKGRFTIPRDNAKNTVYLQMNSLKPEDTAVYYCAKGGYWGQGTQVTVSS”, the “polyreactivity (PSR sort gate)” value was “high polyreactivity”. In the case of “QVQLVESGGGLVQAGGSLRLSCAASGSIFNANAMGWYRQAPGNERELVAGIRSGSSTNYADSVKGRFTISRDNAKNTVYLQMNSLKPEDTAVYYCATEGYWVYGFDDEYWGQGTQVTVSS”, the “polyreactivity (PSR sort gate)” value is reported as “low polyreactivity”. In the case of “QVQLVESGGGLVQAGGSLRLSCAASGSIFNDNVMGWYRPAPGKERELVAGISRSGTRTYYADSVKGRFTISRDNAKNTVYLQMNSLKPEDNAVYYCAAAYGQARRYNGSQYGSWGQGTQVTVSS”, the “polyreactivity (PSR sort gate)” value is reported as “high polyreactivity”. With “QVQLVESGGGLVQAGGSLRLSCAASGSIFNDYAMGWYRQAPGKERELVATISSGGDTYYADSVKGRFTISRDNAKNTVYLQMNSLKPEDTAVYYCAALTGGYVVYTDSYDYWGQGTQVTVSS” the “polyreactivity (PSR sort gate)” value was “low polyreactivity”. With “QVQLVESGGGLVQAGGSLRLSCAASGSIFNGNAMGWYRQAPGKERELVAAISSGDSTNYADSVKGRFTISRDNAKNTVYLQMNSLKPEDTAVYYCNAVHRSIARGGGMDYWGQGTQVTVSS” the “polyreactivity (PSR sort gate)” value was “low polyreactivity”. For “QVQLVESGGGLVQAGGSLRLSCAASGSIFNGYAMGWYRQAPGKERELVAAISKRGGSTYYADSVKGRFTISRDNAKNTVYLQMNSLKPEDTAVYYCAARRLFPYGYWGQGTQVTVSS”, the “polyreactivity (PSR sort gate)” value was “high polyreactivity”. With “QVQLVESGGGLVQAGGSLRLSCAASGSIFNGYAMGWYRQAPGKERELVAAISRRGGSTYYADSVKGRFTISRVNAKNTVYLQMISLKPEDTAVYYCAADPRRPLSPQLSDYWGQGTQVTVSS” the “polyreactivity (PSR sort gate)” value was “high polyreactivity”. In the case of “QVQLVESGGGLVQAGGSLRLSCAASGSIFNGYDMGWYRQAPWKERELVAAISLSGDSTYYADSVKGRFTISRDNAKNTVYLQMNSLKPEDTAVYYCAKGTISSYSPYWYYDYSDYEYWGQGTQVTVSS”, the “polyreactivity (PSR sort gate)” value is reported as “low polyreactivity”. For “QVQLVESGGGLVQAGGSLRLSCAASGSIFNGYTMGWYRQAPRKERELVAAISSRGGITYYADSVKGRFTISRDNAKNTVYLQMNSLKPEDTAVYYCAKTSGYYQAGSLKYGYWGQGTQVTVSS”, the “polyreactivity (PSR sort gate)” value was “high polyreactivity”. In the case of “QVQLVESGGGLVQAGGSLRLSCAASGSIFNIYAMGWYRQAPGKESELVAAISYSGGSTYYADSVKGRFTISRDNAKNTVYLQMNSLKPEDTAVYYCNADGYYFLISNANPLGYWGQGTQVTVSS”, the “polyreactivity (PSR sort gate)” value is reported as “low polyreactivity”. With “QVQLVESGGGLVQAGGSLRLSCAASGSIFNIYARGWYRQAPGKERELVATITGIADSTYYADSVKGRFTISRDNAKNTVYLQMNSLKPEDTAVYYCNADPSGVFFYSLEFDYWGQGTQVTVSS” the “polyreactivity (PSR sort gate)” value was “low polyreactivity”. With “QVQLVESGGGLVQAGGSLRLSCAASGSIFNKYAMGWYRQAPGKERELVAAISVSGTRTYYADSVKGRFTISRDNAKNTVYLQMNSLKPEDSAVYYCATKFFRTAYEYWGQGTQVTVSS” the “polyreactivity (PSR sort gate)” value was “high polyreactivity”. With “QVQLVESGGGLVQAGGSLRLSCAASGSIFNLNAMGWYRQAPGTEREFVAGITYSAGRTYYADSVKGRFTISRDNAKNTVYLQMNSLKPVDTAVYYCAARIYSKFTSYGILDSWGQGTQVTVSS” the “polyreactivity (PSR sort gate)” value was “high polyreactivity”. In the case of “QVQLVESGGGLVQAGGSLRLSCAASGSIFNLYALGWYRKAPGKERELVAAIRWDGGSTYYADSVKGRFTISRDNAKNTVYLQMNSLKPEDTAVYYCAAETVYFRLLILDYWGQGTQVTVSS”, the “polyreactivity (PSR sort gate)” value is reported as “high polyreactivity”. With “QVQLVESGGGLVQAGGSLRLSCAASGSIFNLYTMGWYRQAPGKEMELVAVITGGGSTYYADSVKGRFTISRDNAKNTVYLQMNSLKPADTAVYYCAAKGPFYKSSRTGDYWGQGTQVTVSS” the “polyreactivity (PSR sort gate)” value was “low polyreactivity”. In the case of “QVQLVESGGGLVQAGGSLRLSCAASGSIFNPYAMGWYRQAPGKQRELVAAISYTGGRTYYADSVKGRFTISRDNAQNTVYLQMNSLKPEDTAVYYCIADYIYSFYWSFYEYDYWGQGTQVTVSS”, the “polyreactivity (PSR sort gate)” value is reported as “high polyreactivity”. In the case of “QVQLVESGGGLVQAGGSLRLSCAASGSIFNPYDMGWYRQAPGKERELVAAIDWSGGSTYYADSVKGRFTISRDNAKNTVYLQMNSLKPEDTAVYYCNAESYQDTLFGADNDYDYWGQGTLVTVSS”, the “polyreactivity (PSR sort gate)” value is reported as “low polyreactivity”. With “QVQLVESGGGLVQAGGSLRLSCAASGSIFNQYAMGWYRQAPGKERELVARIRGSTGTTYYADSVKGRFTISRDNAKNTVYLQMNSLKPEDTAVYYCNAARYQGRSRFDYWGQGTQVTVSS” the “polyreactivity (PSR sort gate)” value was “high polyreactivity”. For “QVQLVESGGGLVQAGGSLRLSCAASGSIFNRNAMGWYRQAPGKERELVAAITGRGGSTYYADSVKGRFTISRDNAKNTVYLQMDSLKPEDTAVYYCAAETLAPRAYYYWGQGTQVTVSS”, the “polyreactivity (PSR sort gate)” value was “low polyreactivity”.

From the nanobody polyreactivity screen of Harvey et al. (2022)
